# Experimental data reported in paper PMC6593147, “COP1 regulates the stability of CAM7 to promote photomorphogenic growth” (Plant Direct, 2019).
# B1: GST‐HY5 (natural protein, Arabidopsis thaliana, UniProt O24646 1-168, looked up)
# chain: MQEQATSSLAASSLPSSSERSSSSAPHLEIKEGIESDEEIRRVPEFGGEAVGKETSGRESGSATGQERTQATVGESQRKRGRTPAEKENKRLKRLLRNRVSAQQARERKKAYLSELENRVKDLENKNSELEERLSTLQNENQMLRHILKNTTGNKRGGGGGSNADASL
# notes: Positive control of the pull-down; also called ELONGATED HYPOCOTYL5; source: E. coli BL21 (DE3), purified by Glutathione sepharose 4B beads
# B2: COP1‐His (natural protein)
# chain: MEEISTDPVVPAVKPDPRTSSVGEGANRHENDDGGSGGSEIGAPDLDKDLLCPICMQIIKDAFLTACGHSFCYMCIITHLRNKSDCPCCSQHLTNNQLYPNFLLDKLLKKTSARHVSKTASPLDQFREALQRGCDVSIKEVDNLLTLLAERKRKMEQEEAERNMQILLDFLHCLRKQKVDELNEVQTDLQYIKEDINAVERHRIDLYRARDRYSVKLRMLGDDPSTRNAWPHEKNQIGFNSNSLSIRGGNFVGNYQNKKVEGKAQGSSHGLPKKDALSGSDSQSLNQSTVSMARKKRIHAQFNDLQECYLQKRRQLADQPNSKQENDKSVVRREGYSNGLADFQSVLTTFTRYSRLRVIAEIRHGDIFHSANIVSSIEFDRDDELFATAGVSRCIKVFDFSSVVNEPADMQCPIVEMSTRSKLSCLSWNKHEKNHIASSDYEGIVTVWDVTTRQSLMEYEEHEKRAWSVDFSRTEPSMLVSGSDDCKVKVWCTRQEASVINIDMKANICCVKYNPGSSNYIAVGSADHHIHYYDLRNISQPLHVFSGHKKAVSYVKFLSNNELASASTDSTLRLWDVKDNLPVRTFRGHTNEKNFVGLTVNSEYLACGSETNEVYVYHKEITRPVTSHRFGSPDMDDAEEEAGSYFISAVCWKSDSPTMLTANSQGTIKVLVLAA
# notes: COP1 (CONSTITUTIVELY PHOTOMORPHOGENIC 1) E3 ubiquitin ligase, Arabidopsis thaliana, full-length CDS cloned into pET-20b(+); also called COP1‐6His; source: E. coli BL21 (DE3), purified by Ni‐NTA Agarose beads; not shown: His6, C-terminal, kept
# Tests used:
# [1] = biological target: B2; experiment: pull-down; 2 μg COP1‐His bound to Ni‐NTA beads; GST fusions or GST added in an equimolar ratio, overnight at 4°C; 50 mM Tris‐Cl pH 7.5, 100 mM NaCl, 0.2% glycerol, 0.1% triton, 1 mM EDTA, 0.1% NP‐40; anti‐GST immunoblot; details: both partners purified
# [2] = biological target: T1, GST‐CAM7 (Arabidopsis thaliana, UniProt P59220 1-149); experiment: as above; details: both partners purified
# T1 construct: Vector pGEX-4T2; also called Calmodulin7; CAM7/ZBF3; source: E. coli BL21 (DE3), purified by Glutathione sepharose 4B beads
binding result [1],binding result [2],Binder
binds,,B1
,binds,B2
